Experimental data published in patent US20260184804A1 (KEY2BRAIN, published 2026).
Changes are numbered by the printed parent chain. Names may count otherwise.

Key:
[1] = biological target: T1, His-tagged ectodomain of human transferrin receptor 1 (hTfR1), amino acids R121-F760 (human, UniProt P02786 121-760); experiment: SPR (Biacore 8K, single-cycle); hTfR1 amine-coupled on CM5, fusion as analyte 0.25-64 nM
T1 construct: Made in CHO cells, purified by IMAC; also called human TfR1; ectodomain of hTfR1

[2] = biological target: T1, His-tagged ectodomain of human …; experiment: SPR (Biacore T200, single-cycle); hTfR1 captured on amine-coupled hTf, binder as analyte 6.25-100 nM
[3] = biological target: T1, His-tagged ectodomain of human …; experiment: SPR; hTfR1 pre-complexed with immobilised hTf
[4] = biological target: T2, His-tagged ectodomain of mouse transferrin receptor 1 (mTfR1), amino acids S122-F763 (mouse, UniProt Q62351 122-763); experiment: SPR (Biacore T200); mTfR1 amine-coupled on CM5, KB_A01 as analyte
T2 construct: Made in CHO cells; also called mouse TfR1
Description: The contact time was 150 s for each concentration at […] with a final dissociation step of 500 s. […] At the end of each single cycle run, the mTfR1 surface was fully regenerated by an injection of 10 mM NaOH for 30 s. After each single cycle kinetic run, blank run was performed and used for baseline correction. The data with respect to the association rate constant (ka), the dissociation rate constant (kd) and the equilibrium dissociation constant (KD) was evaluated using Biacore T200 software evaluation tool applying a Langmuir 1:1 model.

[5] = biological target: T1, His-tagged ectodomain of human …; experiment: SPR (Biacore T200); hTfR1 amine-coupled (~2300 RU), VHH at 100 nM; column: binding to hTfR1 similar to corresponding WT VHH
Description: (§1) Briefly, hTfR1 was covalently immobilized to the surface of a CM5 chip (Cytiva) by amine coupling using standard reagents. […] Subsequently, all six VHHs were diluted in running buffer (PBS supplemented with 0.05% Tween® 20 (PBS-T)) to 100 nM. A signal equal or higher than the corresponding WT was regarded as “binding similar to WT” (see Table 11).

[6] = biological target: T1, His-tagged ectodomain of human …; experiment: SPR (Biacore T200); hTfR1 amine-coupled (~1000 RU), VHH at 50 nM; X = binding similar to control
Description: (§2) Briefly, hTfR1 was covalently immobilized to the surface of a CM5 chip (Cytiva) by amine coupling using standard reagents. Human TfR1 was diluted to 15 μg/mL in 10 mM sodium acetate pH 5.5 and immobilizing level was aimed to 1000 response units (RUs). Subsequently, all VHHs were diluted in running buffer (PBS supplemented with 0.05% Tween® 20) to 50 nM. […] Similarly, KB_A15 was also only tested fused to a His6 tag.
(§3) KB_A20-KB_A31 were only produced in CHO cells and purified by PrismA™ resin.

[7] = biological target: T2, His-tagged ectodomain of mouse …; experiment: phage ELISA on coated mTfR1 (1 µg/ml)
Description: Selected phage samples were diluted 1:10 in block buffer casein ELISA blocker (ThermoFischer Scientific), 20% v/v PEG8000 in 2.5 M NaCl before the ELISA. The targets (hTfR1, cTfR1, mTfR1) were coated at 1 μg/ml in PBS pH 7.4 overnight at 4° C. in 96-well Greiner plates (non-treated), 100 μl. The coating buffer was discarded and replaced by 100 μl block solution. The plate was covered and incubated at RT for 2 h, 900 rpm. Anti-human TfR1 antibody BA3 (MEM189, Sigma, 1 mg/ml) and anti-mTfR1 (81D3, Novus biologicals, 1 mg/ml) were diluted in block buffer to 100 nM starting concentration and diluted 1:2 in series by transferring 100 μl to 100 μl block buffer. Plates were incubated for 1 h at RT, 900 rpm, Wells were washed 3×300 μl in PBST (PBS with 0.1% Tween® 20) using the 50TS microplate washer (Biotek). Anti-M13 antibody (Anti-PVIII GE Healthcare) diluted 1:4000 in block buffer, 100 μl was added to target-coated wells followed by incubation for 1 h at RT, 900 rpm. Washing with PBST was performed. The secondary anti-mouse antibody (Sigma) 1:4000 in block buffer, incubated 1 h at RT, 900 rpm. Washes in PBST was followed by development with TMB substrate. The reaction was stopped with addition of 2 M H₂SO₄ to each well, readings for absorbance at 450 nm was measured using a SpectraMax 3000 (Molecular Devices). […]

[8] = biological target: T1, His-tagged ectodomain of human …; experiment: SPR (Biacore T200); hTfR1 amine-coupled (~1000 RU), single concentration; - = no apparent binding
Description: as §2, §3

[9] = biological target: T1, His-tagged ectodomain of human …; experiment: SPR (Biacore T200); hTfR1 amine-coupled (~1000 RU), VHH at 50 nM; (-) = binding affinity severely decreased
Description: as §2, §3

[10] = biological target: T1, His-tagged ectodomain of human …; experiment: SPR (Biacore T200); hTfR1 amine-coupled (~1000 RU), VHH at 50 nM; (X) = binding affinity decreased
Description: as §2, §3

[11] = biological target: T1, His-tagged ectodomain of human …; experiment: SPR (Biacore T200); hTfR1 amine-coupled (~2300 RU), single concentration
Description: as §1

T1 sequence (P02786 other isoform, or with tags, fused parts or gaps limits assumed): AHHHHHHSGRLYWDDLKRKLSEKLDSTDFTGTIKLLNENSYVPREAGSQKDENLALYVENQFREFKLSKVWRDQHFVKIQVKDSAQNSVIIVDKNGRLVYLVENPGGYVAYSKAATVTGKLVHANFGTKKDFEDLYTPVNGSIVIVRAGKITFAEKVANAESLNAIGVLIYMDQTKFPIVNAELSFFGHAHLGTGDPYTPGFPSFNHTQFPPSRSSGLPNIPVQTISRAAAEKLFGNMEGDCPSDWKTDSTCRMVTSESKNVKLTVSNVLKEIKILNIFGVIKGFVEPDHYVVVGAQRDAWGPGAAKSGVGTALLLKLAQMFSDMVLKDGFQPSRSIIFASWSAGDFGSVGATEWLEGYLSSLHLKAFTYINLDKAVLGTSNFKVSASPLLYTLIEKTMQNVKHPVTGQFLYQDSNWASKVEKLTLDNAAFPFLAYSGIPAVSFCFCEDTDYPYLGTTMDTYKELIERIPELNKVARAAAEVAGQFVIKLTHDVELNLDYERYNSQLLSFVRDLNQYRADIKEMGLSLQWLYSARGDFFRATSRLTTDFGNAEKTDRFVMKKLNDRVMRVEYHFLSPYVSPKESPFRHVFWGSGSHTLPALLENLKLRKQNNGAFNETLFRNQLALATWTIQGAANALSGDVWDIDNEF
T2 sequence (Q62351 other isoform, or with tags, fused parts or gaps limits assumed): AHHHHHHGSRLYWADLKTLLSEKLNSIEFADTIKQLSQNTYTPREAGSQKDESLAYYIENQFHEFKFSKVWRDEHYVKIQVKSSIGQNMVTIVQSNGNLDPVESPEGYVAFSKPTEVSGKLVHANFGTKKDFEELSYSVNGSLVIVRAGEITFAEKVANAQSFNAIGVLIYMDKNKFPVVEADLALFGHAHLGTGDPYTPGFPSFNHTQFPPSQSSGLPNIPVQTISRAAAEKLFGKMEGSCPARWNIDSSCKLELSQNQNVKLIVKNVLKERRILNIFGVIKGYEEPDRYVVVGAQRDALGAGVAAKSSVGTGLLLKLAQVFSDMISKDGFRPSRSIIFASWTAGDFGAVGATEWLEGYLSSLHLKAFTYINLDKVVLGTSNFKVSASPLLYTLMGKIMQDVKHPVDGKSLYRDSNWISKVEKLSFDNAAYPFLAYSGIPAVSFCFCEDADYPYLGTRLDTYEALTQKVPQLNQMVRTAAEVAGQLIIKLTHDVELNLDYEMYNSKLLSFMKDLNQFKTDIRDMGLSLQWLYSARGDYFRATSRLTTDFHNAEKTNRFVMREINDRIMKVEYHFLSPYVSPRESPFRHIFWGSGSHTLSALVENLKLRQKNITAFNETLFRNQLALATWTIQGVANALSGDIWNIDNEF

B1: scFv-KB_A01 (scFv of 3D6 at the N-terminus of KB_A01) (bispecific antibody)
chain: EVKLVESGGGLVKPGASLKLSCAASGFTFSNYGMSWVRQNSDKRLEWVASIRSGGGRTYYSDNVKGRFTISRENAKNTLYLQMSSLKSEDTALYYCVRYDHYSGSSDYWGQGTTVTVSGGGGSGGGGSGGGGSYVVMTQTPLTLSVTIGQPASISCKSSQSLLDSDGKTYLNWLLQRPGQSPKRLIYLVSKLDSGVPDRFTGSGSGTDFTLKISRIEAEDLGLYYCWQGTHFPRTFGGGTKLEIKGGGGSGGGGSGGGGSQVQLQESGGGSVQAGGSLSLSCAASGSIFGSKRMGWFRQAPGEQRDVVATITYRGTTEYADSVKGRFTISRDNAKNTVYLQMNNLKPEDTAVYYCWMFTTDNYWGQGTQVTVSSGSENLYFQSHHHHHH
notes: Monovalent for TfR1; also called scFv-VHH
Kd [1]: 3.16 nM
koff [1]: 0.00539 s⁻¹
kon [1]: 1.7e+06 M⁻¹ s⁻¹

B2: KB_A01-scFv (scFv of 3D6 at the C-terminus of KB_A01) (bispecific antibody)
chain: QVQLQESGGGSVQAGGSLSLSCAASGSIFGSKRMGWFRQAPGEQRDVVATITYRGTTEYADSVKGRFTISRDNAKNTVYLQMNNLKPEDTAVYYCWMFTTDNYWGQGTQVTVSSGGGGSGGGGSGGGGSEVKLVESGGGLVKPGASLKLSCAASGFTFSNYGMSWVRQNSDKRLEWVASIRSGGGRTYYSDNVKGRFTISRENAKNTLYLQMSSLKSEDTALYYCVRYDHYSGSSDYWGQGTTVTVSGGGGSGGGGSGGGGSYVVMTQTPLTLSVTIGQPASISCKSSQSLLDSDGKTYLNWLLQRPGQSPKRLIYLVSKLDSGVPDRFTGSGSGTDFTLKISRIEAEDLGLYYCWQGTHFPRTFGGGTKLEIKGSENLYFQSHHHHHH
notes: Monovalent for TfR1; also called VHH-scFv
Kd [1]: 3.44 nM
koff [1]: 0.0075 s⁻¹
kon [1]: 2.18e+06 M⁻¹ s⁻¹

B3: KB_A01, monomeric free VHH with C-terminal 6xHis tag and C-tag (VHH)
VHH: QVQLQESGGGSVQAGGSLSLSCAASGSIFGSKRMGWFRQAPGEQRDVVATITYRGTTEYADSVKGRFTISRDNAKNTVYLQMNNLKPEDTAVYYCWMFTTDNYWGQGTQVTVSS
notes: From the periplasm of E. coli
Kd [2]: 4.1 nM
koff [2]: 0.00414 s⁻¹
kon [2]: 1.01e+06 M⁻¹ s⁻¹
fold lower affinity (KD) than the bivalent BA1 [3]: 206 fold
binding result [4]: no binding (tested: 6.25 to 100 nM)

B4: KB_A12 (KB_A01: S19R, N84S) with GGHHHHHH tag (VHH)
VHH: QVQLQESGGGSVQAGGSLRLSCAASGSIFGSKRMGWFRQAPGEQRDVVATITYRGTTEYADSVKGRFTISRDNAKNTVYLQMNSLKPEDTAVYYCWMFTTDNYWGQGTQVTVSSGGHHHHHH
binding result [5]: binds

B5: KB_A15 (KB_A01: S19R, V78I, N84S), His6-tagged (VHH)
VHH: B3 VHH with S19R, V78I, N84S
notes: also called KB3_A15
binding result [6]: binds

B6: KB_A18 (humanized variant of KB_A01) (VHH)
VHH: B3 VHH with Q1E, Q5V, S11L, A14P, S19R, E43K, V78I, N84S, K86R, Q109L
notes: Free VHH from CHO cells without tag; also run as His6-tagged E. coli form; also called KB3_A18
binding result [6]: binds

B7: KB_A01 clone displayed on phage (VHH)
VHH: B3 VHH
binding result [7]: no binding

B8: KB_A16 (humanized variant of KB_A01) (VHH)
VHH: B3 VHH with Q1E, Q5V, A14P, S19R, E43K, N84S, K86R
notes: Free VHH from CHO cells without tag
binding result [6]: binds

B9: KB_A17 (humanized variant of KB_A01) (VHH)
VHH: B3 VHH with Q1E, Q5V, S11L, A14P, S19R, E43K, N84S, K86R
notes: Free VHH from CHO cells without tag; also run as His6-tagged E. coli form
binding result [6]: binds

B10: KB_A20 (KB_A18 plus F37V) (VHH)
VHH: EVQLVESGGGLVQPGGSLRLSCAASGSIFGSKRMGWVRQAPGKQRDVVATITYRGTTEYADSVKGRFTISRDNAKNTIYLQMNSLRPEDTAVYYCWMFTTDNYWGQGTLVTVSS
notes: Free VHH from CHO cells, no tag, purified on PrismA resin
binding result [8]: no binding (tested: 50 nM)

B11: KB_A21 (KB_A18 plus Q44G) (VHH)
VHH: B10 VHH with V37F, Q44G
notes: Free VHH from CHO cells, no tag
binding result [6]: binds

B12: KB_A22 (KB_A18 plus R45L) (VHH)
VHH: B10 VHH with V37F, R45L
notes: as for B11
binding result [6]: binds

B13: KB_A23 (KB_A18 plus D46E) (VHH)
VHH: B10 VHH with V37F, D46E
notes: as for B11
binding result [6]: binds

B14: KB_A24 (KB_A18 plus V47W) (VHH)
VHH: B10 VHH with V37F, V47W
notes: as for B11
binding result [9]: binds

B15: KB_A25 (KB_A18 plus A49S) (VHH)
VHH: B10 VHH with V37F, A49S
notes: as for B11
binding result [8]: no binding (tested: 50 nM)

B16: KB_A26 (KB_A18 plus T50A) (VHH)
VHH: B10 VHH with V37F, T50A
notes: as for B11
binding result [8]: no binding (tested: 50 nM)

B17: KB_A27 (KB_A18 plus E58Y) (VHH)
VHH: B10 VHH with V37F, E58Y
notes: as for B11
binding result [10]: binds

B18: KB_A28 (KB_A18 plus A74S) (VHH)
VHH: B10 VHH with V37F, A74S
notes: as for B11
binding result [6]: binds

B19: KB_A30 (KB_A18 plus W96A) (VHH)
VHH: B10 VHH with V37F, W96A
notes: as for B11
binding result [8]: no binding (tested: 50 nM)

B20: KB_A31 (KB_A18 plus M97R) (VHH)
VHH: B10 VHH with V37F, M97R
notes: as for B11
binding result [8]: no binding (tested: 50 nM)

B21: ProA positive control 1 with GGHHHHHH tag (VHH)
VHH: QVQLQESGGGLVQPGGSLRLSCAASGFTFSSYAMSWVRQAPGKGLEWVSAISGSGGSTYYADSVKGRFTISRDNSKNTLYLQMNSLRAEDTAVYYCGTDMEVWGKGTTVTVSSGGHHHHHH
binding result [11]: no binding (tested: 100 nM)

B22: KB_A19 (humanized variant of KB_A01) (VHH)
VHH: EVQLVESGGGLVQPGGSLRLSCAASGSIFGSKRMGWVRQAPGKGLEWVSAITYRGTTYYADSVKGRFTISRDNSKNTLYLQMNSLRAEDTAVYYCARFTTDNYWGQGTLVTVSS
notes: as for B9
binding result [8]: no binding (tested: 50 nM)
